{"source": "paper PMC7616425", "about": "“Transient Structural Properties of the Rho GDP-Dissociation Inhibitor” (Angewandte Chemie (International ed. in English), 2024)", "binders": {"B1": {"name": "Alexa647-labeled RhoGDI1 L56G (natural protein, bovine, UniProt P19803 1-204, looked up)", "chain": "MAEQEPTAEQLAQIAAENEEDEHSVNYKPPAQKSIQEIQELDKDDESLRKYKEALGGRVAVSADPNVPNVVVTRLTLVCSTAPGPLELDLTGDLESFKKQSFVLKEGVEYRIKISFRVNREIVSGMKYIQHTYRKGVKIDKTDYMVGSYGPRAEEYEFLTPMEEAPKGMLARGSYNIKSRFTDDDRTDHLSWEWNLTIKKEWKD", "modifications": "Alexa647 acceptor (site not stated)"}}, "key": {"[1]": {"molecular_target": "Cdc42, homogeneously geranylgeranylated in vitro (UniProt P60953 1-191, geranylgeranylated in vitro (residue not stated))", "sequence (P60953 whole entry)": "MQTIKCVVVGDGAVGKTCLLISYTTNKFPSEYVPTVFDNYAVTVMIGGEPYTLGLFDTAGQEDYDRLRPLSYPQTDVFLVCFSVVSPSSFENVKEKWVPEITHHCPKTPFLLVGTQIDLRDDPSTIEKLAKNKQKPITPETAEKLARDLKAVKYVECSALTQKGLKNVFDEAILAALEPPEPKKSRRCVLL", "assay": "cell-based or functional assay"}, "[2]": {"molecular_target": "T1, Alexa647-labeled RhoGDI1 (wt) (bovine, UniProt P19803 1-204, Alexa647 acceptor (site not stated))", "T1 construct": "also called wildtype GDI; wt RhoGDI", "T1 sequence (looked up)": "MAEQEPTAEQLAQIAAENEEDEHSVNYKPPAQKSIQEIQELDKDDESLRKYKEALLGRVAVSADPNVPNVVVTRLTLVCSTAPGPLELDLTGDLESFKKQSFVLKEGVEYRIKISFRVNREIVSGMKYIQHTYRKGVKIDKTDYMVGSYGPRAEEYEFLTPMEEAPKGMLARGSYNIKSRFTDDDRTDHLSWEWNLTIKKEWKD", "assay": "not stated; association rate constant determined independently for wildtype GDI (Figure S17)", "conditions": "both partners purified"}, "[3]": {"molecular_target": "T1, Alexa647-labeled RhoGDI1 (wt)", "assay": "FRET or BRET; dissociation assay: 80 nM dual-labeled complex (Alexa647 on RhoGDI1, Cy3 on Cdc42) mixed with excess (5 μM) unlabeled GDI; mono-exponential fits; KD calculated from the measured dissociation rate constant and the association rate constant measured for wt (assumed for the mutants)", "conditions": "both partners purified"}, "[4]": {"molecular_target": "B1", "assay": "FRET or BRET; dissociation assay: 80 nM dual-labeled complex (Alexa647 on RhoGDI1, Cy3 on Cdc42) mixed with excess (5 μM) unlabeled GDI; mono-exponential fits; KD calculated from the measured dissociation rate constant and the association rate constant measured for wt (assumed for the mutants)", "conditions": "both partners purified"}}}
{"binder": "full-length RhoGDI1 (residues 1 to 204), bovine (natural protein, UniProt P19803 1-204, looked up, triply labeled (2H, 13C, 15N) in the NMR samples) MAEQEPTAEQLAQIAAENEEDEHSVNYKPPAQKSIQEIQELDKDDESLRKYKEALLGRVAVSADPNVPNVVVTRLTLVCSTAPGPLELDLTGDLESFKKQSFVLKEGVEYRIKISFRVNREIVSGMKYIQHTYRKGVKIDKTDYMVGSYGPRAEEYEFLTPMEEAPKGMLARGSYNIKSRFTDDDRTDHLSWEWNLTIKKEWKD", "values": [{"measurement": "inhibition of EDTA-induced Mant-GDP dissociation from prenylated Cdc42 with saturating (5 μM) RhoGDI, against free Cdc42", "setting": "[1]", "value": 83, "unit": "fold"}]}
{"binder": "Cy3-labeled, prenylated Cdc42 (natural protein, prenylated (residue not stated); Cy3 donor (site not stated), Cdc42, Rho family small GTPase) not shown", "values": [{"measurement": "kon", "setting": "[2]", "value": "5e+06", "unit": "M⁻¹ s⁻¹"}, {"measurement": "Kd", "setting": "[3]", "value": 0.09, "unit": "nM"}, {"measurement": "koff", "setting": "[3]", "value": 0.0004, "unit": "s⁻¹"}, {"measurement": "Kd", "setting": "[4]", "value": 4, "unit": "nM"}, {"measurement": "koff", "setting": "[4]", "value": 0.2, "unit": "s⁻¹"}]}
{"binder": "B1", "values": [{"measurement": "acceleration of Mant-GDP dissociation from prenylated Cdc42 with 5 μM RhoGDI L56G, against wt RhoGDI", "setting": "[1]", "value": 5, "unit": "fold"}]}
